The supplement of paper PMC11246515
± gives the standard deviation of the averaged measurements.

Assay: total protein half-life in vivo (active degradation + dilution); higher = more stable protein
[1] = E. coli NCM3722 delta-clpP delta-lon delta-hslV, growth: N-lim chemostat, doubling time 6 h
[2] = E. coli NCM3722 delta-clpP, growth: N-lim chemostat, doubling time 6 h
[3] = E. coli NCM3722 delta-hslV, growth: N-lim chemostat, doubling time 6 h
[4] = E. coli NCM3722 delta-lon, growth: N-lim chemostat, doubling time 6 h
[5] = E. coli NCM3722 delta-smpB, growth: N-lim chemostat, doubling time 6 h
[6] = wild type E. coli NCM3722, growth: C-lim chemostat, doubling time 3 h
[7] = wild type E. coli NCM3722, growth: C-lim chemostat, doubling time 6 h
[8] = wild type E. coli NCM3722, growth: C-lim chemostat, doubling time 12 h
[9] = wild type E. coli NCM3722, growth: N-lim chemostat, doubling time 6 h
[10] = wild type E. coli NCM3722, growth: N-lim chemostat, doubling time 12 h
[11] = wild type E. coli NCM3722, growth: P-lim chemostat, doubling time 6 h
[12] = wild type E. coli NCM3722, growth: P-lim chemostat, doubling time 12 h

Sequence	total protein half-life in vivo [1]	total protein half-life in vivo [2]	total protein half-life in vivo [3]	total protein half-life in vivo [4]	total protein half-life in vivo [5]	total protein half-life in vivo [6]	total protein half-life in vivo [7]	total protein half-life in vivo [8]	total protein half-life in vivo [9]	total protein half-life in vivo [10]	total protein half-life in vivo [11]	total protein half-life in vivo [12]
MSQNNPLRALLDKQDILLLDGAMATELEARGCNLADSLWSAKVLVENPELIREVHLDYYRAGAQCAITASYQATPAGFAARGLDEAQSKALIGKSVELARKAREAYLAENPQAGTLLVAGSVGPYGAYLADGSEYRGDYHCSVEAFQAFHRPRVEALLDAGADLLACETLPNFSEIEALAELLTAYPRARAWFSFTLRDSEHLSDGTPLRDVVALLAGYPQVVALGINCIALENTTAALQHLHGLTVLPLVVYPNSGEHYDAVSKTWHHHGEHCAQLADYLPQWQAAGARLIGGCCRTTPADIAALKARS	6.94 ± 1.2 h	4.714 ± 0.0092 h	4.45 ± 0.15 h	4.95 ± 0.14 h	4.6036 ± 0.0045 h	2.51 ± 0.23 h	5.009 ± 0.032 h	8.67 ± 1.6 h	5.31 ± 0.38 h	8.64 ± 0.12 h	6.15 ± 0.4 h	13 ± 0.82 h
MGKTNDWLDFDQLAEEKVRDALKPPSMYKVILVNDDYTPMEFVIDVLQKFFSYDVERATQLMLAVHYQGKAICGVFTAEVAETKVAMVNKYARENEHPLLCTLEKA [P0A8Q6]	5.9 ± 0.35 h		0.855 ± 0.013 h	1.05 h		0.522 h	0.628 h	0.456 h				0.869 h
MSIKEQTLMTPYLQFDRNQWAALRDSVPMTLSEDEIARLKGINEDLSLEEVAEIYLPLSRLLNFYISSNLRRQAVLEQFLGTNGQRIPYIISIAGSVAVGKSTTARVLQALLSRWPEHRRVELITTDGFLHPNQVLKERGLMKKKGFPESYDMHRLVKFVSDLKSGVPNVTAPVYSHLIYDVIPDGDKTVVQPDILILEGLNVLQSGMDYPHDPHHVFVSDFVDFSIYVDAPEDLLQTWYINRFLKFREGAFTDPDSYFHNYAKLTKEEAIKTAMTLWKEINWLNLKQNILPTRERASLILTKSANHAVEEVRLRK [P0A6I3]	4.81 ± 0.35 h	5.07 ± 0.72 h	4.053 ± 0.029 h	4.54 ± 0.22 h	4.28 ± 0.39 h	3.07 ± 0.17 h	5.71 ± 0.51 h	8.55 ± 0.56 h	4.41 ± 0.7 h	7.123 ± 0.068 h	5.6077 ± 0.0014 h	12.5 ± 0.64 h
MADKKLDTQLVNAGRSKKYTLGAVNSVIQRASSLVFDSVEAKKHATRNRANGELFYGRRGTLTHFSLQQAMCELEGGAGCVLFPCGAAAVANSILAFIEQGDHVLMTNTAYEPSQDFCSKILSKLGVTTSWFDPLIGADIVKHLQPNTKIVFLESPGSITMEVHDVPAIVAAVRSVVPDAIIMIDNTWAAGVLFKALDFGIDVSIQAATKYLVGHSDAMIGTAVCNARCWEQLRENAYLMGQMVDADTAYITSRGLRTLGVRLRQHHESSLKVAEWLAEHPQVARVNHPALPGSKGHEFWKRDFTGSSGLFSFVLKKKLNNEELANYLDNFSLFSMAYSWGGYESLILANQPEHIAAIRPQGEIDFSGTLIRLHIGLEDVDDLIADLDAGFARIV	4.64 ± 0.42 h	4.43 ± 0.49 h	3.95 ± 0.2 h	6.18 ± 0.7 h	4.33 ± 0.2 h	3.36 ± 0.33 h	4.76 ± 1.1 h	9.28 ± 0.72 h	4.28 ± 0.085 h		6.1 ± 0.46 h	12.1 ± 1.6 h
MSTDNKQSLPAITLAAIGVVYGDIGTSPLYTLRECLSGQFGFGVERDAVFGFLSLIFWLLIFVVSIKYLTFVMRADNAGEGGILTLMSLAGRNTSARTTSMLVIMGLIGGSFFYGEVVITPAISVMSAIEGLEIVAPQLDTWIVPLSIIVLTLLFMIQKHGTAMVGKLFAPIMLTWFLILAGLGLRSIIANPEVLHALNPMWAVHFFLEYKTVSFIALGAVVLSITGVEALYADMGHFGKFPIRLAWFTVVLPSLTLNYFGQGALLLKNPEAIKNPFFLLAPDWALIPLLIIAALATVIASQAVISGVFSLTRQAVRLGYLSPMRIIHTSEMESGQIYIPFVNWMLYVAVVIVIVSFEHSSNLAAAYGIAVTGTMVLTSILSTTVARQNWHWNKYFVALILIAFLCVDIPLFTANLDKLLSGGWLPLSLGTVMFIVMTTWKSERFRLLRRMHEHGNSLEAMIASLEKSPPVRVPGTAVYMSRAINVIPFALMHNLKHNKVLHERVILLTLRTEDAPYVHNVRRVQIEQLSPTFWRVVASYGWRETPNVEEVFHRCGLEGLSCRMMETSFFMSHESLILGKRPWYLRLRGKLYLLLQRNALRAPDQFEIPPNRVIELGTQVEI	7.06 ± 1.1 h		6.21 h	6.28 ± 0.53 h	5.9 ± 0.4 h		6.79 ± 0.6 h	14.2 ± 1.2 h	6.28 ± 1 h	12.17 ± 0.096 h	6.43 ± 0.26 h	12.6 ± 0.69 h
